Assay results reported in patent US20180339057A1 (Novo Nordisk, published 2018).
Residue numbers refer to the chain shown, from its start. Names may count otherwise.

T1: human MIC-1 receptor (hGFRAL, GDNF family receptor alpha like), full length (human, UniProt Q6UXV0 19-394)
T1 sequence (looked up): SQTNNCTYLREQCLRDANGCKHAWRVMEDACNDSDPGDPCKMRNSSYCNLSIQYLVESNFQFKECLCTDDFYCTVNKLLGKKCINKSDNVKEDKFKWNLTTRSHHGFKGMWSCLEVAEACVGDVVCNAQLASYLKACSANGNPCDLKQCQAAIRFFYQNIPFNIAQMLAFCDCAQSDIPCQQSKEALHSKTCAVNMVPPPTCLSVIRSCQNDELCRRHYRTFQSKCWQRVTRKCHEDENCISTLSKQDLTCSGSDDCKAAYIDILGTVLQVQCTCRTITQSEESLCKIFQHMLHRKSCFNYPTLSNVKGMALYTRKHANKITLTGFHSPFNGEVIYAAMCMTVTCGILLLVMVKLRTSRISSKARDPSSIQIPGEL

B1: Macrophage Inhibitory Cytokine-1 (MIC-1), human wild type, monomer sequence SEQ ID NO:1 (ligand)
chain: ARNGDHCPLGPGRCCRLHTVRASLEDLGWADWVLSPREVQVTMCIGACPSQFRAANMHAQIKTSLHRLKPDTVPAPCCVPASYNPMVLIQKTDTGVSLQTYDDLLAKDCHCI
notes: covalently linked homodimer; 112 amino acid monomer = residues 197-308 of the precursor; also called wtMIC-1
B2: Compound 04 (ligand)
chain: SEPATCGSETPGTSESATPESGPGTSTEPSEGARGDHCPLGPGRCCRLHTVRASLEDLGWADWVLSPREVQVTMCIGACPSQFRAANMHAQIKTSLHRLKPDTVPAPCCVPASYNPMVLIQKTDTGVSLQTYDDLLAKDCHCI
modifications: Cys-27 (residue 6 of SEQ ID NO: 291): S{Beta}-[2-[2-[[2-[2-[2-[[2-[2-[2-[[(4S)-4-carboxy-4-(13-carboxytridecanoylamino)butanoyl]amino]ethoxy]ethoxy]acetyl]amino]ethoxy]ethoxy]acetyl]amino]ethylamino]-2-oxoethyl]Cys (protractor of Example 10.3)
notes: homodimer, two protractors per dimer
B3: Compound 10 (ligand)
chain: B2 chain with C6S, M88L, M117L
modifications: alpha-amino group of the N-terminal Ser-32 (residue 1 of SEQ ID NO: 164): N-[4-[[[2-[2-[2-[[2-[2-[2-[[(4S)-4-carboxy-4-(17-carboxyheptadecanoylamino)butanoyl]amino]ethoxy]ethoxy]acetyl]amino]ethoxy]ethoxy]acetyl]amino]methyl]phenyl]methyl (protractor of Example 10.1)
notes: homodimer with one protractor on each of the two N-terminal extensions; also called Formula A (C18)
B4: Compound 15 (ligand)
chain 1: B2 chain with C6S, M88L, K100R, M117L, K122R, K138R
chain 2: B2 chain with C6S, M88L, K100R, M117L, K122R, K138R
modifications: alpha-amino group of the N-terminal Ser-32 (residue 1 of SEQ ID NO: 312): N-[4-[[[2-[2-[2-[[2-[2-[2-[[(4S)-4-carboxy-4-(17-carboxyheptadecanoylamino)butanoyl]amino]ethoxy]ethoxy]acetyl]amino]ethoxy]ethoxy]acetyl]amino]methyl]phenyl]methyl (protractor of Example 10.1)
notes: also called monoalkylated
B5: SEPATSGSETPGTSESATPESGPGTSTEPSEG-MIC-1, del-N3, M57L, M86L, K69R, K107R, K91R (ligand)
chain: B2 chain with C6S, M88L, K100R, M117L, K122R, K138R
notes: homodimer; no protractor
B6: Compound 05 (ligand)
chain: B2 chain with C6S, G7C, M88L, M117L
modifications: Cys-26 (residue 7 of SEQ ID NO: 289): S{Beta}-[2-[2-[[2-[2-[2-[[2-[2-[2-[[(4S)-4-carboxy-4-(17-carboxyheptadecanoylamino)butanoyl]amino]ethoxy]ethoxy]acetyl]amino]ethoxy]ethoxy]acetyl]amino]ethylamino]-2-oxoethyl]Cys (protractor of Example 10.4)
notes: as for B2
B7: Compound 19 (ligand)
chain: B2 chain with A4C, C6S
modifications: Cys-29 (residue 4 of SEQ ID NO: 288): S{Beta}-[2-[[(1S)-1-carboxy-5-[[2-[2-[2-[[2-[2-[2-[[(4S)-4-carboxy-4-[10-(4-carboxyphenoxy)decanoylamino]butanoyl]amino]ethoxy]ethoxy]acetyl]amino]ethoxy]ethoxy]acetyl]amino]pentyl]amino]-2-oxoethyl]Cys (protractor of Example 10.8)
notes: as for B2
B8: Compound 06 (ligand)
chain: B2 chain with C6S, S8C, M88L, M117L
modifications: Cys-25 (residue 8 of SEQ ID NO: 303): S{Beta}-[2-[2-[[2-[2-[2-[[2-[2-[2-[[(4S)-4-carboxy-4-(17-carboxyheptadecanoylamino)butanoyl]amino]ethoxy]ethoxy]acetyl]amino]ethoxy]ethoxy]acetyl]amino]ethylamino]-2-oxoethyl]Cys (protractor of Example 10.4)
notes: as for B2
B9: Compound 17 (ligand)
chain: B2 chain with A4C, C6S
modifications: Cys-29 (residue 4 of SEQ ID NO: 288): S{Beta}-[2-[2-[[2-[2-[2-[[2-[2-[2-[[(4S)-4-carboxy-4-(16-sulfohexadecanoylamino)butanoyl]amino]ethoxy]ethoxy]acetyl]amino]ethoxy]ethoxy]acetyl]amino]ethylamino]-2-oxoethyl]Cys (protractor of Example 10.6)
notes: as for B2
B10: SEPATSGSETPGTSESATPESGPGTSTEPCEG-MIC-1, des-N3, M57L, M86L (Cys mutation S(-3)C) (ligand)
chain: B2 chain with C6S, S30C, M88L, M117L
notes: homodimer; no protractor
B11: SEPATSGSETPGTSESACPESGPGTSTEPSEG-MIC-1, des-N3, M57L, M86L (Cys mutation T(-15)C) (ligand)
chain: B2 chain with C6S, T18C, M88L, M117L
notes: homodimer; no protractor
B12: SEPCTSGSETPGTSESATPESGPGTSTEPSEG-MIC-1, des-N3 (Cys mutation A(-29)C) (ligand)
chain: B2 chain with A4C, C6S
notes: homodimer; no protractor
B13: SEPCTSGSETPGTSESATPESGPGTSTEPSEG-MIC-1, des-N3, M57L, M86L (Cys mutation A(-29)C) (ligand)
chain: B2 chain with A4C, C6S, M88L, M117L
notes: homodimer; no protractor
B14: SEPATSCSETPGTSESATPESGPGTSTEPSEG-MIC-1, des-N3, M57L, M86L (Cys mutation G(-26)C) (ligand)
chain: B2 chain with C6S, G7C, M88L, M117L
notes: homodimer; no protractor
B15: SEPATCGSETPGTSESATPESGPGTSTEPSEG-MIC-1, des-N3 (Cys mutation S(-27)C) (ligand)
chain: B2 chain
notes: homodimer; no protractor
B16: Compound 11 (ligand)
chain: B2 chain with A4C, C6S, M88L, M117L
modifications: Cys-29 (residue 4 of SEQ ID NO: 290): S{Beta}-[2-[2-[[2-[2-[2-[[2-[2-[2-[[(4S)-4-carboxy-4-(17-carboxyheptadecanoylamino)butanoyl]amino]ethoxy]ethoxy]acetyl]amino]ethoxy]ethoxy]acetyl]amino]ethylamino]-2-oxoethyl]Cys (protractor of Example 10.4)
notes: as for B2
B17: Compound 20 (ligand)
chain: B2 chain with A4C, C6S
modifications: Cys-29 (residue 4 of SEQ ID NO: 288): S{Beta}-[2-[[(1S)-1-carboxy-5-[[2-[2-[2-[[2-[2-[2-[[(4S)-4-carboxy-4-[12-(4-carboxyphenoxy)dodecanoylamino]butanoyl]amino]ethoxy]ethoxy]acetyl]amino]ethoxy]ethoxy]acetyl]amino]pentyl]amino]-2-oxoethyl]Cys (protractor of Example 10.9)
notes: as for B2
B18: Compound 08 (ligand)
chain: B2 chain with C6S, S30C, M88L, M117L
modifications: Cys-3 (residue 30 of SEQ ID NO: 293): S{Beta}-[2-[2-[[2-[2-[2-[[2-[2-[2-[[(4S)-4-carboxy-4-(17-carboxyheptadecanoylamino)butanoyl]amino]ethoxy]ethoxy]acetyl]amino]ethoxy]ethoxy]acetyl]amino]ethylamino]-2-oxoethyl]Cys (protractor of Example 10.4)
notes: as for B2
B19: Compound 16 (ligand)
chain: B2 chain with C6S, M88L, K100R, M117L, K122R, K138R
modifications: alpha-amino group of the N-terminal Ser-32 (residue 1 of SEQ ID NO: 312): N-[4-[[[2-[2-[2-[[2-[2-[2-[[(4S)-4-carboxy-4-(17-carboxyheptadecanoylamino)butanoyl]amino]ethoxy]ethoxy]acetyl]amino]ethoxy]ethoxy]acetyl]amino]methyl]phenyl]methyl (protractor of Example 10.1)
notes: homodimer, two protractors per dimer; also called dialkylated
B20: Compound 18 (ligand)
chain: B2 chain with A4C, C6S
modifications: Cys-29 (residue 4 of SEQ ID NO: 288): S{Beta}-[2-[[(5S)-5-carboxy-5-[[2-[2-[2-[[2-[2-[2-[4-[17-(1H-tetrazol-5-yl)heptadecanoylsulfamoyl]butanoylamino]ethoxy]ethoxy]acetyl]amino]ethoxy]ethoxy]acetyl]amino]pentyl]amino]-2-oxoethyl]Cys (protractor of Example 10.7)
notes: as for B2
B21: Compound 21 (ligand)
chain: B2 chain with A4C, C6S
modifications: Cys-29 (residue 4 of SEQ ID NO: 288): S{Beta}-[2-[2-[[2-[2-[2-[[2-[2-[2-[[(4S)-4-carboxy-4-[16-(1H-tetrazol-5-yl)hexadecanoylamino]butanoyl]amino]ethoxy]ethoxy]acetyl]amino]ethoxy]ethoxy]acetyl]amino]ethylamino]-2-oxoethyl]Cys (protractor of Example 10.10)
notes: as for B2
B22: SEPATSGCETPGTSESATPESGPGTSTEPSEG-MIC-1, des-N3, M57L, M86L (Cys mutation S(-25)C) (ligand)
chain: B2 chain with C6S, S8C, M88L, M117L
notes: homodimer; no protractor
B23: Compound 07 (ligand)
chain: B2 chain with C6S, T18C, M88L, M117L
modifications: Cys-15 (residue 18 of SEQ ID NO: 292): S{Beta}-[2-[2-[[2-[2-[2-[[2-[2-[2-[[(4S)-4-carboxy-4-(17-carboxyheptadecanoylamino)butanoyl]amino]ethoxy]ethoxy]acetyl]amino]ethoxy]ethoxy]acetyl]amino]ethylamino]-2-oxoethyl]Cys (protractor of Example 10.4)
notes: as for B2

Target: T1, human MIC-1 receptor (hGFRAL, GDNF …)
Experiment: cell-based or functional assay

Binder | Emax (%) | pERK EC50 (nM)
B1 | 100 | 0.3

Target: T1, human MIC-1 receptor (hGFRAL, GDNF …)
Experiment: cell-based or functional assay
Remark: another data set of the same source

Binder | Luciferase + 0.1% HSA NNDK EC50 (pM) | Luciferase NNDK EC50 (pM)
B2 | 58 | 90
B3 | 146 | 71
B4 | 39 | 61
B5 | 35 | 42
B6 | 63 | 57
B7 | 62 | 45
B8 | 61 | 81
B9 | 65 | 43
B10 | 243 | 217
B11 | 115 | 125
B12 | 47 | 70
B13 | 75 | 100
B14 | 26 | 35
B15 | 45 | 80
B16 | 62 | 55
B17 | 77 | 49
B18 | 651 | 139
B19 | 51 | 63
B20 | 67 | 66
B21 | 56 | 53
B22 | 34 | 57
B23 | 198 | 121
B1 | 36 | 59

Target: T1, human MIC-1 receptor (hGFRAL, GDNF …)
Experiment: SPA: displacement of 50 pM human [125I]-MIC-1 from BHK21-hGFRAL-IRES-hRET cell membranes
Description: Binding potencies of MIC-1 compounds were calculated by IC50 of displacement curves.
BHK21-hGFRAL-IRES-hRET cells were cultured at +37° C. in a humidified atmosphere with 5% CO₂ in complete medium consisting of DMEM with high glucose and sodium pyrovate, heat inactivated 10% Fetal Bovine Serum, 1% Penicillin-Streptomycin, 1 mg/ml G418-Geneticin and 400 ug/ml Hygromycin. Cells were washed twice in ice cold Dulbecco's phosphate-buffered saline (DPBS) and detached mechanically by scraping, transferred in ice cold DPBS into conical centrifuge tubes and centrifuged for 5 min at 1500 rpm at +20° C. Cell pellet was resuspended in a total amount of 10 ml ice cold homogenization buffer A (50 mM Tris, 2.5 mM EDTA, adjust pH7.4 with one EDTA-free protease inhibitor cocktail tablet/50 ml) and homogenized for 20 seconds. The homogenate was centrifuged at 16000 rpm in 20 minutes at +4° C. The supernatant was discarded and the pellet was reconstituted in 10 ml homogenization buffer B (50 mM Tris, 320 mM Sucrose, adjust pH 7.4 with one EDTA-free protease inhibitor cocktail tablet/50 ml) and homogenized for 20 seconds and centrifuged at 16000 rpm in 20 minutes at +4° C. This procedure was repeated one more time. The supernatant was discarded and the pellet was reconstituted in 3 ml homogenization buffer B and homogenized for 10 seconds at low speed. Protein concentration was determined by standard Bradford method and 1.5 mg protein/tube was aliquoted to cryotubes and stored at −80° C. Binding assays were performed in white 96-well plates in a total volume of 200 μl per well. Wheat germ agglutinin SPA beads were reconstituted in assay buffer (50 mM Tris/HCl, 4.5 mM MgCl₂, 0.02% Tween 20 and 0.25% Ovalbumin pH 7.4) and mixed with membrane preparation to give a final concentration of 0.5 mg SPA beads and 10 μg total protein per well. […] The plate was sealed and incubated at +22° C. for 2 hours in a plate shaker set at 350 rpm and thereafter centrifuged at 1500 rpm for 10 minutes prior to reading of SPA bead light emission.

Binder | IC50 [nM]
B2 | 17
B3 | 20
B4 | 39
B5 | 116
B6 | 23
B7 | 17
B8 | 21
B9 | 4.7
B10 | 83
B11 | 29
B12 | 6.7
B13 | 80
B14 | 36
B15 | 10
B16 | 29
B17 | 6.5
B18 | 56
B19 | 11
B20 | 1.3
B21 | 1
B22 | 43
B23 | 29
B1 | 0.67
